From patent US20230322958A1 (Genentech, published 2023)
Where two headings read alike, the source gives them in different places.

T1: gpNotch2-EGF6-12 (guinea pig)
T1 construct: also called guinea pig Notch2 EGF6-12
T1 chain: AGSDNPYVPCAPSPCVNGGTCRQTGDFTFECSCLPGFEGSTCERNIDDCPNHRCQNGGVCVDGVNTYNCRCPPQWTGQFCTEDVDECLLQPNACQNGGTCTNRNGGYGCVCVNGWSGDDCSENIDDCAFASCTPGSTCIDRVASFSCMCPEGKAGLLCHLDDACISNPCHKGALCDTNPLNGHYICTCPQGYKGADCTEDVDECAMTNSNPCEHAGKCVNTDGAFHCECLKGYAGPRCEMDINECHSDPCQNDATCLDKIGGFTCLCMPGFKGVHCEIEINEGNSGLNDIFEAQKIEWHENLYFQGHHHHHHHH

T2: huNotch2-EGF7-9 (human)
T2 chain: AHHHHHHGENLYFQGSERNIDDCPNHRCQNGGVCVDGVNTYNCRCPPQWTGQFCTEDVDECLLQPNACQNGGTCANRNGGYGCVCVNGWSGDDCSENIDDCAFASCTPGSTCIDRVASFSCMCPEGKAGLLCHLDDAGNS

T3: muNotch2-EGF6-12.K268R (mouse)
T3 chain: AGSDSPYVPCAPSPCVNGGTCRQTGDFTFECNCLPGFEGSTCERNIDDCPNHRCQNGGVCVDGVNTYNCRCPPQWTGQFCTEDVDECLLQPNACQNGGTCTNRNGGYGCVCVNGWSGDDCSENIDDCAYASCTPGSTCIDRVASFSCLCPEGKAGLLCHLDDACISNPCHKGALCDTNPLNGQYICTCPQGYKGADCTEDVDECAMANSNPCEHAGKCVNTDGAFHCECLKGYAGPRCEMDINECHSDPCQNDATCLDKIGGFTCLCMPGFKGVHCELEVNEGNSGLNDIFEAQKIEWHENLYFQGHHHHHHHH

T4: huNotch2-EGF5-8 (human)
T4 chain: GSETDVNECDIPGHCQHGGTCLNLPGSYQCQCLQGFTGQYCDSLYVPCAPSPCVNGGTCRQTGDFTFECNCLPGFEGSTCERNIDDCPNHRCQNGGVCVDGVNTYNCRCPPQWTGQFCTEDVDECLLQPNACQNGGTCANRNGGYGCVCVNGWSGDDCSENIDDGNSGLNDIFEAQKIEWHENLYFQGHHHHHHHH

T5: huNotch2-EGF4-7 (human)
T5 chain: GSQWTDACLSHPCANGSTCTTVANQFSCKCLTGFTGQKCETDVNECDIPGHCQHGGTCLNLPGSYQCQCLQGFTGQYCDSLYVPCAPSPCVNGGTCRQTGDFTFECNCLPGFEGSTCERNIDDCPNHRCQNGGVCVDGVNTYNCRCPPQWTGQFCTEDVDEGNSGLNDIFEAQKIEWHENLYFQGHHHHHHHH

T6: huNotch2-EGF6-10 (human, UniProt Q04721 219-418)
T6 construct: also called human Notch2 EGF6-10
T6 sequence: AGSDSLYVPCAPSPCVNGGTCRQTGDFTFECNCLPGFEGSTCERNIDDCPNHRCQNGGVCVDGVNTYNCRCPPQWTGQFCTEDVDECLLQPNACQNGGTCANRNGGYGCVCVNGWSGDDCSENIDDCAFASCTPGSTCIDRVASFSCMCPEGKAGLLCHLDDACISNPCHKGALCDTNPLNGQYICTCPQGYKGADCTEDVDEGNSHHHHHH

T7: huNotch3 (human)
T7 construct: The entry named huNotch3 is a tagged EGF-repeat fragment; also called human Notch3
T7 chain: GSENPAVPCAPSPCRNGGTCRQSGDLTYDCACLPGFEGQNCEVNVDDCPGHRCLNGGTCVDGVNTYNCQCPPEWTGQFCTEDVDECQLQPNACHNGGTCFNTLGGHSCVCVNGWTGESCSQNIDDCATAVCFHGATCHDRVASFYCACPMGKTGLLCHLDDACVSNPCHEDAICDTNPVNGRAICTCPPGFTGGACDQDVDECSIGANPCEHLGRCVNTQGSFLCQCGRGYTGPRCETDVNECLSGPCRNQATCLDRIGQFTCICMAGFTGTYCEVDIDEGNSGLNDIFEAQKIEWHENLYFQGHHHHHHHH

T8: huNotch1 (human)
T8 construct: The entry named huNotch1 is a tagged EGF-repeat fragment; also called human Notch1
T8 chain: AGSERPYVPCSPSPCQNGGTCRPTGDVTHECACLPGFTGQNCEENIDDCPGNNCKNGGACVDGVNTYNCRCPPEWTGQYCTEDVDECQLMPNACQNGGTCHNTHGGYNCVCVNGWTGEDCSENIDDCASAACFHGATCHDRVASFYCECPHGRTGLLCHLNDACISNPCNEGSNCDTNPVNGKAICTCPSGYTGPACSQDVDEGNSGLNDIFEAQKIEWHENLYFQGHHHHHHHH


How the values were obtained:
[1] = biological target: T1, gpNotch2-EGF6-12; experiment: SPR BIAcore, antibody captured on protein A, 37 C
Experimental: (§1) Binding of the anti-Notch2 antibodies to Notch2 from additional species and to constructs comprising different EGF repeat regions was evaluated by BIAcore™. For this experiment, the antibodies with human constant regions were captured on a protein A chip to achieve approximately 200 RU. Ten-fold serial dilutions of various antigens were injected in HIBS-P buffer with additional 3 mM CaCl₂ at 37° C. with a flow rate of 100 μL/min.

[2] = biological target: T2, huNotch2-EGF7-9; experiment: SPR BIAcore, antibody captured on protein A, 37 C
Experimental: as §1

[3] = biological target: T3, muNotch2-EGF6-12.K268R; experiment: SPR BIAcore, antibody captured on protein A, 37 C
Experimental: as §1

[4] = biological target: T4, huNotch2-EGF5-8; experiment: SPR BIAcore, antibody captured on protein A, 37 C
Experimental: as §1

[5] = biological target: T5, huNotch2-EGF4-7; experiment: SPR BIAcore, antibody captured on protein A, 37 C
Experimental: as §1

[6] = biological target: T6, huNotch2-EGF6-10; experiment: SPR BIAcore T200, antibody captured on protein A, 37 C
Experimental: (§2) The binding affinities of the antibodies was determined by BIAcore™ T200 machine. Rabbit antibodies were expressed as chimeric antibodies with rabbit variable domains and human constant domains. Rat antibodies were expressed as chimeric antibodies with rat variable domains and human constant regions. Humanized antibodies were expressed in the human IgG1 backbone. For kinetics measurements, antibodies were captured on research grade protein A chip (GE Healthcare) to achieve approximately 300 RU. Ten-fold serial dilutions of huNotch2-EGF6-10 were injected in HBS-P buffer with additional 3 mM CaCl₂ at 37° C. with a flow rate of 100 μL/min. Association rates (ka) and dissociation rates (kd) were calculated using a 1:1 Langmuir binding model (BIAcore™ T200 Evaluation Software version 2.0). The equilibrium dissociation constant (KD) was calculated as the ratio kd/ka.

[7] = biological target: T6, huNotch2-EGF6-10; experiment: SPR BIAcore, separate experiment, substantially as for Table 4
Experimental: as §2
In a separate experiment, the binding affinities of the humanized versions of the rat 3107 antibody were determined, substantially as described above.

[8] = biological target: T9, human Notch2 on U-87 MG cells (human, UniProt Q04721 26-2471); experiment: cell-based or functional assay
T9 sequence (Q04721 26-2471): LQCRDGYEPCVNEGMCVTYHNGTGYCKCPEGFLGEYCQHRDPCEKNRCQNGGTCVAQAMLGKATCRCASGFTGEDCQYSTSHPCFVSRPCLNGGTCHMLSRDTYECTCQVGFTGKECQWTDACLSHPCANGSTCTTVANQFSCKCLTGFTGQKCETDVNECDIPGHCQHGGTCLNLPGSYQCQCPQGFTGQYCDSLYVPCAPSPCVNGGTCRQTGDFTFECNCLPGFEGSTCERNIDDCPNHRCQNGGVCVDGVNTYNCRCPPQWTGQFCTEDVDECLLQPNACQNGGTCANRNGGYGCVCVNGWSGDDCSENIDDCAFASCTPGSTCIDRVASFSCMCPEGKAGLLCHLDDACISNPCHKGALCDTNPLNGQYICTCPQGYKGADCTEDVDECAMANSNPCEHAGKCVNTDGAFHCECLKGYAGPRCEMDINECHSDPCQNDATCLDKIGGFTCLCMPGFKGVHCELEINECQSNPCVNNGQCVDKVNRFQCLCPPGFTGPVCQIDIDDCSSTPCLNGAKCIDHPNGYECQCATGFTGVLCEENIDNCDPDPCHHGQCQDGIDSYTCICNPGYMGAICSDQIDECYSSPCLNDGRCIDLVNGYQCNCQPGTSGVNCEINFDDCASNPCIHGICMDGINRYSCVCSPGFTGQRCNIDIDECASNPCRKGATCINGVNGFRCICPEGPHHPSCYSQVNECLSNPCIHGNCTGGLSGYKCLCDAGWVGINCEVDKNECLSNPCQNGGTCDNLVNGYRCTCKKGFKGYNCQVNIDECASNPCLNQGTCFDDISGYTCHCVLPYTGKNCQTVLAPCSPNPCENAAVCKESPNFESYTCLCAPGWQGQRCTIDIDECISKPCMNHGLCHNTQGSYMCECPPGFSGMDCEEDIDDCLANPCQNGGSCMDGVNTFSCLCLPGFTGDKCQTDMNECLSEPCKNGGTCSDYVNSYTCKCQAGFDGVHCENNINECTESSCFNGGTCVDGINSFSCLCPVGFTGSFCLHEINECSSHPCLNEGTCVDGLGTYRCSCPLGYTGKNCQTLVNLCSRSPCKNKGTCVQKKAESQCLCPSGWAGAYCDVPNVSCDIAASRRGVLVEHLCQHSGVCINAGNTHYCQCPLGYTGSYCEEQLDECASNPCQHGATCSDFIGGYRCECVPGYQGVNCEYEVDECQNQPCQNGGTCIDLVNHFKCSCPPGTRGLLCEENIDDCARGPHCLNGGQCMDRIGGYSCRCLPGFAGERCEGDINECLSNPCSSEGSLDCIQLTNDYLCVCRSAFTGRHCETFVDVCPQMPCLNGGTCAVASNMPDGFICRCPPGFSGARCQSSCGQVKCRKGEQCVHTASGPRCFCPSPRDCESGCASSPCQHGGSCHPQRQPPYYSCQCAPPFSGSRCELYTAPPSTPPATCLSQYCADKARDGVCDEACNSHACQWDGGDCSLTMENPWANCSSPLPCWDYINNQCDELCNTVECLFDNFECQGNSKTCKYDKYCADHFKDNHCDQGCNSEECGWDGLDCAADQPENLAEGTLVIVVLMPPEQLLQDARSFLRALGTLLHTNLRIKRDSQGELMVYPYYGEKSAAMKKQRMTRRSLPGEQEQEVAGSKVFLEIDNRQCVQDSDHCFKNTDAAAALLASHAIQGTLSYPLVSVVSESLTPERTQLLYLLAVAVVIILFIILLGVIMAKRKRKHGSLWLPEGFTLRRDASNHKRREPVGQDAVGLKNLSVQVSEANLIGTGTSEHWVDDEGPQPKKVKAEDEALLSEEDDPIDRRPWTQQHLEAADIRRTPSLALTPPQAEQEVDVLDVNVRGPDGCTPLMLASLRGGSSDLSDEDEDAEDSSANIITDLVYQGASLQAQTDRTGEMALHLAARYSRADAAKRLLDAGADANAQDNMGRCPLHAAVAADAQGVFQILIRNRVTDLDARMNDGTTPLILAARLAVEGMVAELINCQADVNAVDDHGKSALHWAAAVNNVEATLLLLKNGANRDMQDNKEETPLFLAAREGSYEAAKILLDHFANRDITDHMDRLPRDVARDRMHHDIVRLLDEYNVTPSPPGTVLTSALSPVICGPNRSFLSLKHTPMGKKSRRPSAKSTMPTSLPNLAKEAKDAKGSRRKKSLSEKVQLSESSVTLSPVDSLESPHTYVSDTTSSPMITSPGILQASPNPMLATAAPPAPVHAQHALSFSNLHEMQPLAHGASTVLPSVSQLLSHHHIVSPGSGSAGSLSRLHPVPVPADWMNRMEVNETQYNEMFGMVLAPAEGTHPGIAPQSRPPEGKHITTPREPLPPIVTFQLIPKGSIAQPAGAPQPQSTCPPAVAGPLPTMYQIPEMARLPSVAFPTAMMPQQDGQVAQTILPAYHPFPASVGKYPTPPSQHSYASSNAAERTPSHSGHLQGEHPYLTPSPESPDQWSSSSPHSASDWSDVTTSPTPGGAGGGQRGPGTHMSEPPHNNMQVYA

[9] = biological target: T9, human Notch2 on U-87 MG cells; experiment: cell-based or functional assay; remark: listed apart in the source
[10] = biological target: T9, human Notch2 on U-87 MG cells; experiment: cell-based or functional assay; remark: listed apart in the source
[11] = biological target: T9, human Notch2 on U-87 MG cells; experiment: KinExA equilibrium whole-cell analysis on Notch2-expressing U-87 cells
Experimental: After incubation, the cells were centrifuged and the supernatants, containing the free fraction of antibody or Fab construct, were removed without disturbing the cell pellets and transferred onto a KinExA 3200 instrument with autosampler (Sapidyne Instruments Inc). Each supernatant was flowed over a solid phase composed of polystyrene beads (#440176, Sapidyne Instruments Inc) coated with biotinylated goat anti-human Immunoglobulin G (IgG) heavy+light (H+L) (#109-065-003, Jackson ImmunoResearch Laboratories Inc.) or biotinylated Notch2 extracellular domain to capture the free antibody or Fab construct. […] The fluorescent signals were recorded and converted to a voltage signal that is directly proportional to the amount of free antibody or Fab construct in the equilibrated sample. Using the built in Equilibrium Whole Cell analysis method, the KinExA Pro software performed a least squares analysis on the measured data to fit optimal solutions for the KD and the activity of the free antibody or Fab construct to a curve representative of a 1:1 reversible bi-molecular interaction. […] A N-curve analysis was applied for the testing of the two concentrations of antibody or Fab construct to determine the KD on Notch2-expressing U-87 cells.
The binding kinetics were determined using a similar assay format as the one used for the equilibrium analysis, with the exception that measurements were collected “pre-equilibrium” and the binding signals were plotted as a function of time. For the KinExA direct method, anti-Notch2 antibody and Fab formats were incubated with Notch2-expressing U-87 cells at a fixed concentration (Table 12) and aliquots of the cell binding solution were collected at different time points to determine the fraction of free antibody or Fab format. The KinExA Pro software was then used to determine the association rate constant (Kₒₙ).

[12] = biological target: T7, huNotch3; experiment: SPR
[13] = biological target: T8, huNotch1; experiment: SPR

binding result [1] | binding result [2] | binding result [3] | binding result [4] | binding result [5] | Kd [6] | koff [6] | kon [6] | Kd [7] | koff [7] | kon [7] | Jagged1 IC50 [8] | Jagged1 IC50 [9] | DLL Inhibition (IC50) [10] | Jag1 Inhibition (IC50) [10] | Kd [11] | binding result [12] | binding result [13] | Binder
 |  |  |  |  | 2.84 nM | 0.000813 s⁻¹ | 286000 M⁻¹ s⁻¹ |  |  |  |  | 3.02 nM |  |  |  | no binding | no binding | hu1B2.v101 (antibody, V domains shown, Human IgG1 backbone) VH: EVQLVESGGGLVQPGGSLKLSCAVSGFTFSDFYMEWVRQASGKGLEWVAAQRNKANDFSIVYSASVKDRFTISRDDSKSTLYLQMNSLKTEDTAVYYCSRDGGRWGLDAWGQGTLVTVSS VL: DIQMTQSPSSVSASVGDRVTITCQTSEDIYSGLAWYQQKPGKSPKLLIYGASRLQDGVPSRFSGSGSGTDYTLTISSLQPEDFATYYCQQGFKYPLTFGGGTKVEIK
binds | binds | binds | binds | binds | 3.09 nM | 0.0011 s⁻¹ | 357000 M⁻¹ s⁻¹ |  |  |  |  | 2.48 nM |  |  |  |  |  | hu1B2.v104 (antibody, V domains shown, Human IgG1 backbone; also called hu1B2.v014) VH: EVQLVESGGGLVQPGGSLKLSCAVSGFTFSDFYMEWVRQASGKGLEWVAAQRNKANDFSIVYSASVKDRFTISRDDSKSTLYLQMNSLKTEDTAVYYCSRDGGKLALDAWGQGTLVTVSS VL: DIQMTQSPSSVSASVGDRVTITCQTSEDIYSGLAWYQQKPGKSPKLLIYGASRLQDGVPSRFSGSGSGTDYTLTISSLQPEDFATYYCQQGFKYPLTFGGGTKVEIK

Continued, binder first:

Binder | binding result [1] | binding result [2] | binding result [3] | binding result [4] | binding result [5] | Kd [6] | koff [6] | kon [6] | Kd [7] | koff [7] | kon [7] | Jagged1 IC50 [8] | Jagged1 IC50 [9] | DLL Inhibition (IC50) [10] | Jag1 Inhibition (IC50) [10] | Kd [11] | binding result [12] | binding result [13]
rat.3107 (rat/human chimeric anti-Notch2 antibody 3107) (antibody, V domains shown) VH: QVQLQQSGAELAKSGSSVKISCKASGYTFSNYVIHWIKQTTGQAPEWTGYIIPGSGGTKFNEKFKGKATLTVDKSSTTAYMQLSSLTPVDTAVYYCARDGAGSFTYWGQGTLVTVSS VL: DVLMTQTPVSLPVSLGGQVSISCRSSQSLVHSDGNTYLHWFLQKPGQSPQLLIYRISNRFSGVPDRFSGSGSGTDFTLKISRVEPEDLGVYYCLQSTHFPDTFGGGTKVEIK | binds | binds | binds | binds | binds | 5 nM | 0.00182 s⁻¹ | 363000 M⁻¹ s⁻¹ | 9.12 nM | 0.00312 s⁻¹ | 342000 M⁻¹ s⁻¹ | 4.88 nM | 2.1 nM |  |  |  |  | 
1B2.v104.huFab.LC_K149C.dPEG_trimer (other, engineered Cys (K149C) joined through maleimide to Tri(Mal-PEG2-amide)-amine, also called 1B2.v104 Fab trimer; aN2.1B2.Fab-trimer) heavy: EVQLVESGGGLVQPGGSLKLSCAVSGFTFSDFYMEWVRQASGKGLEWVAAQRNKANDFSIVYSASVKDRFTISRDDSKSTLYLQMNSLKTEDTAVYYCSRDGGKLALDAWGQGTLVTVSSASTKGPSVFPLAPSSKSTSGGTAALGCLVKDYFPEPVTVSWNSGALTSGVHTFPAVLQSSGLYSLSSVVTVPSSSLGTQTYICNVNHKPSNTKVDKKVEPKSCD light: DIQMTQSPSSVSASVGDRVTITCQTSEDIYSGLAWYQQKPGKSPKLLIYGASRLQDGVPSRFSGSGSGTDYTLTISSLQPEDFATYYCQQGFKYPLTFGGGTKVEIKRTVAAPSVFIFPPSDEQLKSGTASVVCLLNNFYPREAKVQWCVDNALQSGNSQESVTEQDSKDSTYSLSSTLTLSKADYEKHKVYACEVTHQGLSSPVTKSFNRGEC |  |  |  |  |  |  |  |  |  |  |  |  |  | > 700 nM | 0.5 nM | 0.0335 nM |  | 
hu1B2.v102 (antibody, V domains shown, Human IgG1 backbone) VH: EVQLVESGGGLVQPGGSLKLSCAVSGFTFSDFYMEWVRQASGKGLEWVAAQRNKANDFSIVYSASVKDRFTISRDDSKSTLYLQMNSLKTEDTAVYYCSRDGGRLALDAWGQGTLVTVSS VL: DIQMTQSPSSVSASVGDRVTITCQTSEDIYSGLAWYQQKPGKSPKLLIYGASRLQDGVPSRFSGSGSGTDYTLTISSLQPEDFATYYCQQGFKYPLTFGGGTKVEIK | binds | binds | binds | binds | binds | 3.37 nM | 0.00131 s⁻¹ | 387000 M⁻¹ s⁻¹ |  |  |  |  | 1.59 nM |  |  |  |  | 
